According to patent US20220259316A1 (SINOCELLTECH, published 2022):

Biological target: T1, EGFR ECD recombinant protein (UniProt P00533 25-645, limits assumed)
T1 construct: extracellular domain; also called erbB1; Her1
Experiment: method not stated; recombinant EGFR ECD protein

- Kd: 0.05 nM
B1: recombinant fully human anti-EGFR monoclonal antibody N6-3 (antibody, human IgG1, kappa, V domains shown)
VH: QVQLQESGPGLVKPSETLSLTCTVSGGSVSSGDYYWSWIRQSPGKGLEWIGHIYYSGNTNYNPSLKSRLTISIDTSKNQFSLKLSSVTAADTAIYYCVRDRVTGAFDIWGQGTMVTVSS
VL: DIVMTQSPSTLSASVGDRVTITCQASQDISNYLNWYQQKPGKAPKLLIYDASSLETGVPSRFSGSGSGTDFTFTISGLQPEDIATYFCQHFDHLPLAFGGGTKVEIKR
notes: also called recombinant human anti-EGFR monoclonal antibody (N6-3)
